Results reported in publication PMC11659893.

Assays:
[1] = biological target: Tachlorophyllase H76S/E79S/C270S triple variant (Triticum aestivum); test: SEC-MALS + other: dynamic light scattering
[2] = biological target: Triticum aestivum chlorophyllase (Tachlorophyllase), wild type (Triticum aestivum); test: SEC-MALS + other: dynamic light scattering

Substance	stoichiometry N [1]	stoichiometry N [2]
Tachlorophyllase H76S/E79S/C270S triple variant (enzyme)	2	
Triticum aestivum chlorophyllase (Tachlorophyllase), wild type (enzyme)		2
